In the supplement of paper PMC10724198:
± gives the standard deviation of the averaged measurements.

tested on: Saccharomyces cerevisiae; assay: protein stability index of tFT-peptide fusion (C-terminal peptide) (PSI (0-1 scale)); higher = more stable (slower turnover); conditions: genetic background: doa10 deletion; temperature: 30 C
Description: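 MPS profiling in S. cerevisiae of the tFT-X12 degron library: putative degron peptides plus stable controls, 12 aa, fused to the C-terminus of a sfGFP-mCherry timer. Cells are FACS-sorted into 8 mCherry/sfGFP bins and deep-sequenced. PSI runs from 0 (unstable) to 1 (stable). Backgrounds are wild type, das1Δ and doa10Δ at 30 °C, and wild type, das1Δ, cdc34-1 and cdc53-1 at 37 °C; 2-3 technical replicates each.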
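Further: PSI is a weighted mean of sequencing reads over stability bins, variants kept only with over 10 reads, mCherry proximal and sfGFP distal, peptide attached via GGGS linker.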

Going from WWVAGLGSSGGG to WWVVVRGGWCLC, the protein stability index falls from 0.686 ± 0.031 to 0.1219 ± 0.0001.

Compared with YFVLVRLICFLL, YNTVALRITLIT is higher in protein stability index: 0.194 ± 0.011 for the first, 0.209 ± 0.00078 for the second.

Going from YPLISVSLPCPS to YPRLVGGCWFRL, the protein stability index rises from 0.349 ± 0.005 to 0.644 ± 0.043.

Going from YSCFFFLFSFFF to YSVFCPLFFIIY, the protein stability index falls from 0.423 ± 0.022 to 0.351 ± 0.014.

Compared with YTPPISRLLIFT, YVFSPWSCWASV is higher in protein stability index: 0.353 ± 0.019 for the first, 0.4213 ± 0.00065 for the second.

First: YVLWFVCGVGFV
Second: YVWPKRRGLRVA
The protein stability index of the first is higher: 0.262 ± 0.024 for the first, 0.197 ± 0.019 for the second.

YYLVKCVYLRTT showed a protein stability index of 0.155 ± 0.02.

same assay, conditions: genetic background: wild type; temperature: 30 C

WVFVETVFLVCG and WVGVVLLSVVGG are within error of each other in protein stability index: 0.162 ± 0.03 for the first, 0.183 ± 0.025 for the second.

First: WVWCVCVVVWCG
Second: WVWFGCVLGYRV
The protein stability index of the first is lower: 0.14 ± 0.02 for the first, 0.413 ± 0.027 for the second.

Going from WWVAGLGSSGGG to WWVVVRGGWCLC, the protein stability index falls from 0.677 ± 0.0094 to 0.16 ± 0.0021.

YFVLVRLICFLL and YNTVALRITLIT are within error of each other in protein stability index: 0.216 ± 0.039 for the first, 0.228 ± 0.017 for the second.

Compared with YPLISVSLPCPS, YPRLVGGCWFRL is lower in protein stability index: 0.404 ± 0.023 for the first, 0.319 ± 0.041 for the second.

First: YSCFFFLFSFFF
Second: YSVFCPLFFIIY
The protein stability index of the first is higher: 0.406 ± 0.0031 for the first, 0.283 ± 0.02 for the second.

YTPPISRLLIFT and YVFSPWSCWASV are within error of each other in protein stability index: 0.364 ± 0.052 for the first, 0.4048 ± 0.0027 for the second.

YVLWFVCGVGFV and YVWPKRRGLRVA are within error of each other in protein stability index: 0.298 ± 0.02 for the first, 0.261 ± 0.038 for the second.

In the case of YYLVKCVYLRTT, the protein stability index is reported as 0.175 ± 0.0092.

same assay, conditions: genetic background: wild type; temperature: 37 C

First: WVFVETVFLVCG
Second: WVGVVLLSVVGG
The protein stability index of the first is lower: 0.2848 ± 0.0003 for the first, 0.32339 ± 0.00026 for the second.

First: WVWCVCVVVWCG
Second: WVWFGCVLGYRV
The protein stability index of the first is lower: 0.195 ± 0.026 for the first, 0.531 ± 0.019 for the second.

Compared with WWVAGLGSSGGG, WWVVVRGGWCLC is lower in protein stability index: 0.765 ± 0.026 for the first, 0.205 ± 0.0045 for the second.

YFVLVRLICFLL and YNTVALRITLIT are within error of each other in protein stability index: 0.373 ± 0.013 for the first, 0.364 ± 0.0086 for the second.

Compared with YPLISVSLPCPS, YPRLVGGCWFRL is higher in protein stability index: 0.544 ± 0.016 for the first, 0.603 ± 0.031 for the second.

Compared with YSCFFFLFSFFF, YSVFCPLFFIIY is lower in protein stability index: 0.50243 ± 1.8e-05 for the first, 0.433 ± 0.0062 for the second.

First: YTPPISRLLIFT
Second: YVFSPWSCWASV
The protein stability index of the first is higher: 0.494 ± 0.022 for the first, 0.351 ± 0.015 for the second.

YVLWFVCGVGFV and YVWPKRRGLRVA are within error of each other in protein stability index: 0.453 ± 0.028 for the first, 0.49 ± 0.025 for the second.

Sequence YYLVKCVYLRTT has a protein stability index of 0.3201 ± 0.00022.

tested on: Saccharomyces cerevisiae; assay: as above; conditions: genetic background: wild type; temperature: 30 C

WVFVETVFLVCG and WVGVVLLSVVGG are within error of each other in protein stability index: 0.25 ± 0.02 for the first, 0.279 ± 0.032 for the second.

Compared with WVWCVCVVVWCG, WVWFGCVLGYRV is higher in protein stability index: 0.25425 ± 0.00016 for the first, 0.484 ± 0.022 for the second.

First: WWVAGLGSSGGG
Second: WWVVVRGGWCLC
The protein stability index of the first is higher: 0.7348 ± 0.0046 for the first, 0.204 ± 0.011 for the second.

YFVLVRLICFLL and YNTVALRITLIT are within error of each other in protein stability index: 0.244 ± 0.085 for the first, 0.348 ± 0.03 for the second.

First: YPLISVSLPCPS
Second: YPRLVGGCWFRL
The protein stability index of the first is higher: 0.489 ± 0.012 for the first, 0.403 ± 0.047 for the second.

First: YSCFFFLFSFFF
Second: YSVFCPLFFIIY
The protein stability index of the first is higher: 0.4853 ± 0.0041 for the first, 0.379 ± 0.014 for the second.

YTPPISRLLIFT and YVFSPWSCWASV are within error of each other in protein stability index: 0.497 ± 0.097 for the first, 0.423 ± 0.015 for the second.

YVLWFVCGVGFV and YVWPKRRGLRVA are within error of each other in protein stability index: 0.392 ± 0.041 for the first, 0.433 ± 0.013 for the second.

YYLVKCVYLRTT was tested, and the protein stability index was 0.254 ± 0.032.
